Assays:
[1] = target: Fc-fragment generated by papain cleavage, including 12 amino acids of the hinge region
[2] = target: T1, H-kininogen, P01042
T1 chain: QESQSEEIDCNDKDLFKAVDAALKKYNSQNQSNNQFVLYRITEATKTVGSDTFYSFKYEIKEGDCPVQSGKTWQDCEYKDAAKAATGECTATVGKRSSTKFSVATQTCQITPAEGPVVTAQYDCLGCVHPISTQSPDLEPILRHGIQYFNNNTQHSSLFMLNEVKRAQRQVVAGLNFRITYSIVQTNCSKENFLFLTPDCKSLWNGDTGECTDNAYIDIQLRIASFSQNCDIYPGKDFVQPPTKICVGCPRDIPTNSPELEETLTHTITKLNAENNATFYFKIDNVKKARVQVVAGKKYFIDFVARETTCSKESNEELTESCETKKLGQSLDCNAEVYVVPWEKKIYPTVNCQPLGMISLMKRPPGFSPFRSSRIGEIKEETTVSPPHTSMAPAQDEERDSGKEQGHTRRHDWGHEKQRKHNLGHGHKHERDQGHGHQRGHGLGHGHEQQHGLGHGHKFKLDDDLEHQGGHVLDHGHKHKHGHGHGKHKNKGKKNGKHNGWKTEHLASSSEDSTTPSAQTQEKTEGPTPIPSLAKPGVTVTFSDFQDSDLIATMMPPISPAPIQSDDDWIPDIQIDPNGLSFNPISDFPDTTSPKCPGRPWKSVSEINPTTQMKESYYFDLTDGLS

[3] = target: T2, Z-LVG-CHN2
T2 chain: LVG

[4] = target: albumin, P02768
[5] = target: T3, antimicrobial peptide LL-37, P49913
T3 chain: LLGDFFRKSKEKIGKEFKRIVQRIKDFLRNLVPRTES

[6] = target: aprotinin, P00974
[7] = target: T4, cystatin C from chicken, P01038
T4 chain: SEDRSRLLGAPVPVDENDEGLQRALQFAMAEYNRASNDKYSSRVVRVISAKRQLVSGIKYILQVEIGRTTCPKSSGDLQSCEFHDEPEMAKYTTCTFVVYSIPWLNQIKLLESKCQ

[8] = target: T5, cystatin C from mouse, P21460
T5 chain: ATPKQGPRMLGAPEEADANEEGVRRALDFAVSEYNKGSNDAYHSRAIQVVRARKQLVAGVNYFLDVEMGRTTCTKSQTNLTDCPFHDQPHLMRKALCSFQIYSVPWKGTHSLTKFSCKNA

[9] = target: T6, cystatin C from rat, P14841
T6 chain: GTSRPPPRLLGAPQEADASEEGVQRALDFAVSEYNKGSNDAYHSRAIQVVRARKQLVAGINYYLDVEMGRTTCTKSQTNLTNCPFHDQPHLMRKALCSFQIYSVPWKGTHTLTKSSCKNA

[10] = target: T7, cystatin C, P01034
T7 chain: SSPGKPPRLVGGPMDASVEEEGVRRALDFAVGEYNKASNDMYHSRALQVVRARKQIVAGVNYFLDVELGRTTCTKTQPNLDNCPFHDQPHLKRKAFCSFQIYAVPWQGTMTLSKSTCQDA

[11] = target: T8, cystatin D, P28325
T8 chain: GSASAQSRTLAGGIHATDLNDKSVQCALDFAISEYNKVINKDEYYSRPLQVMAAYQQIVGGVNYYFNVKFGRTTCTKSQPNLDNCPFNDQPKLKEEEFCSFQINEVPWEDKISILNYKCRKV

[12] = target: T9, fibrinogen, P02671
T9 chain 1: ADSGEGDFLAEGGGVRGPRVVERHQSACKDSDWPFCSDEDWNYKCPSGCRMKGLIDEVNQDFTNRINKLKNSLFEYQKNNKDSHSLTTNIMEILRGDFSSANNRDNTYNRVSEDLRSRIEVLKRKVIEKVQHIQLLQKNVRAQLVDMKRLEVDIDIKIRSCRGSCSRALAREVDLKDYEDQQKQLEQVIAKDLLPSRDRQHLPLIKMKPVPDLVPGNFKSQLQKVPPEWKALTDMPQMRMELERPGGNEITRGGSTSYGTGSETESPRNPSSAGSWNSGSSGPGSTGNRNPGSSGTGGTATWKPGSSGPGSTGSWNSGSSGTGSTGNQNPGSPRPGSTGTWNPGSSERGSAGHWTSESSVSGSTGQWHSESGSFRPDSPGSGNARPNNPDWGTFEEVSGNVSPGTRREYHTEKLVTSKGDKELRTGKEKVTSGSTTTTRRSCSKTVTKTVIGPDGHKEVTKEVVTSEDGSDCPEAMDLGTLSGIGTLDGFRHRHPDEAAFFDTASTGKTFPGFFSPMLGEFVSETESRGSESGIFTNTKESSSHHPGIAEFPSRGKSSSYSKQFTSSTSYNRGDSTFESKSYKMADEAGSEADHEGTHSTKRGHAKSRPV
T9 chain 2: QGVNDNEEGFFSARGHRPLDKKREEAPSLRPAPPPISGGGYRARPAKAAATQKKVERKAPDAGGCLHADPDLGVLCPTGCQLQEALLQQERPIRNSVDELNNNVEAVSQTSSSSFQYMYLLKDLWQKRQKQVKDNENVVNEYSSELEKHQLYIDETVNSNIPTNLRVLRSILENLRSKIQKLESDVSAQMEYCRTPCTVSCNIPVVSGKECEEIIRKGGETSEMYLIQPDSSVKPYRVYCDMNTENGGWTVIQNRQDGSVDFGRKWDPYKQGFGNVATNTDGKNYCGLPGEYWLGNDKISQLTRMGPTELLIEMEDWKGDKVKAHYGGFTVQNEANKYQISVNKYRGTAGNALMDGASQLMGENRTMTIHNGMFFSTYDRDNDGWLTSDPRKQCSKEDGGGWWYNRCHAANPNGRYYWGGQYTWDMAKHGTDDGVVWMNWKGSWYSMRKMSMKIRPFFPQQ
T9 chain 3: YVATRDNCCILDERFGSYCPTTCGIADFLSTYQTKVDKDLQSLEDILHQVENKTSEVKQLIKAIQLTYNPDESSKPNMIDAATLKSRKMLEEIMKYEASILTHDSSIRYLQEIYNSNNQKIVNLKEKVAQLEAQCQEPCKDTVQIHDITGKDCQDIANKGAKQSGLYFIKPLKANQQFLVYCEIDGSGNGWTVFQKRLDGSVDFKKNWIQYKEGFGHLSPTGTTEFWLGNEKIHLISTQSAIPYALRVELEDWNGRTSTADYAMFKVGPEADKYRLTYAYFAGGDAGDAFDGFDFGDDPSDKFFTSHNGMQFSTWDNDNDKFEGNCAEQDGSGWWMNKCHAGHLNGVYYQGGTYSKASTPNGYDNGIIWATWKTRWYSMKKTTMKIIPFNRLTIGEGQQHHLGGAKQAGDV

[13] = target: fibronectin, P02751
fibronectin, P02751, sequence (P02751 other isoform, or with tags, fused parts or gaps): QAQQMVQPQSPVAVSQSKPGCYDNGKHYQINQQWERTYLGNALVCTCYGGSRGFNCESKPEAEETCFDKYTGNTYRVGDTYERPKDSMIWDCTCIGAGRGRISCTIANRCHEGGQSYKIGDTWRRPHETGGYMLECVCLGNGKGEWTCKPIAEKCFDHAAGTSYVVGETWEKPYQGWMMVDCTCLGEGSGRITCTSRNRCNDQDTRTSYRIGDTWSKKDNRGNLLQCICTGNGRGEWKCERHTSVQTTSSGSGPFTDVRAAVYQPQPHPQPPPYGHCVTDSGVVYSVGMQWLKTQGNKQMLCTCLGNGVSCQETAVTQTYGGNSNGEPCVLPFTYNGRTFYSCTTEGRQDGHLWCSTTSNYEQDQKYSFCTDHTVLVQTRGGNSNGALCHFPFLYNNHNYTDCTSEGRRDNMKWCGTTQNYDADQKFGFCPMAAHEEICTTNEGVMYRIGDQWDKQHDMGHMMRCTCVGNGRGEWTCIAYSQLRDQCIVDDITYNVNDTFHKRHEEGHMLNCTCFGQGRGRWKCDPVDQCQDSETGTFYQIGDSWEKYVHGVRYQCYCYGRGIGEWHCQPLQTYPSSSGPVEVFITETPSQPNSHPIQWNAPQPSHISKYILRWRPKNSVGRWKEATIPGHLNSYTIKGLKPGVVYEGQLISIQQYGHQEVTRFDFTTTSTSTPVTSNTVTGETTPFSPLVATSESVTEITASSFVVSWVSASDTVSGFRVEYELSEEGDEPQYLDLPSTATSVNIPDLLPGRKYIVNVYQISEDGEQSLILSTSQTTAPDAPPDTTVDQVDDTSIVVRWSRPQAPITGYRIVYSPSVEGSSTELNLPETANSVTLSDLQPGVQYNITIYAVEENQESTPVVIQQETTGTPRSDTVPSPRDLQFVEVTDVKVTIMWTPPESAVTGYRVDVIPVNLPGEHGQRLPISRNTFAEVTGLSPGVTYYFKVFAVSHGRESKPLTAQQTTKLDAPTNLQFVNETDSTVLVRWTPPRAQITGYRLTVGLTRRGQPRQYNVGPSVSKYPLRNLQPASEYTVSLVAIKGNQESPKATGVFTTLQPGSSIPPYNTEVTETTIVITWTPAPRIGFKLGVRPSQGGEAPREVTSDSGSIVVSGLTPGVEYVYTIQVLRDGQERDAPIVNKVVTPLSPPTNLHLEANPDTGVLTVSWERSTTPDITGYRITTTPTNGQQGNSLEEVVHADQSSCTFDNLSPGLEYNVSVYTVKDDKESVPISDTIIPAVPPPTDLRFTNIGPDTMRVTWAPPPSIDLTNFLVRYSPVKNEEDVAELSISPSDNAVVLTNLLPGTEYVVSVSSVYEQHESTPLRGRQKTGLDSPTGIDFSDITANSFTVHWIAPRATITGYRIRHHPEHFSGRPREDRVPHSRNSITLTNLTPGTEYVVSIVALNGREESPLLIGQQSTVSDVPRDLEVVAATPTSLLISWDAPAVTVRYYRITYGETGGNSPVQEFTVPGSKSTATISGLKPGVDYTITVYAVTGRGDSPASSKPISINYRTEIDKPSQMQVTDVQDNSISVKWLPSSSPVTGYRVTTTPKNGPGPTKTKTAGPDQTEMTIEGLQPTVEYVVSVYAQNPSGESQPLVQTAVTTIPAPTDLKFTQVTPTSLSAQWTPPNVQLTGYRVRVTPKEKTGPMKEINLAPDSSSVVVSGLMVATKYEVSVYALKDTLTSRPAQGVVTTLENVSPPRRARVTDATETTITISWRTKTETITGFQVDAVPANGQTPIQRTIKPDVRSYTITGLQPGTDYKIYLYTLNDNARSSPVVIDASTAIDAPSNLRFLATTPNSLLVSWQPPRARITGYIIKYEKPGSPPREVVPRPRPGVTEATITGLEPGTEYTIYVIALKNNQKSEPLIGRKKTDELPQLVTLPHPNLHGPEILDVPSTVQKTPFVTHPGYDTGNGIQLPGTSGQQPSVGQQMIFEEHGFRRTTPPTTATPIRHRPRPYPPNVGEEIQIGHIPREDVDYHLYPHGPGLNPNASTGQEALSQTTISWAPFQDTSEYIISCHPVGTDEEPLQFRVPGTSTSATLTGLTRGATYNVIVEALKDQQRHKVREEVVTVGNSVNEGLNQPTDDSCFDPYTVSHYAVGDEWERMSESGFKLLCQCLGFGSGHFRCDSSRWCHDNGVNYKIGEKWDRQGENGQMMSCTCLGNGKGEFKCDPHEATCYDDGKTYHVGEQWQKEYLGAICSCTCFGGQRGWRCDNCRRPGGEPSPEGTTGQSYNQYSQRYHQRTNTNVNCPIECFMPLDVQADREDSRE

[14] = target: lactoferrin, P02788
lactoferrin, P02788, sequence (P02788 20-710): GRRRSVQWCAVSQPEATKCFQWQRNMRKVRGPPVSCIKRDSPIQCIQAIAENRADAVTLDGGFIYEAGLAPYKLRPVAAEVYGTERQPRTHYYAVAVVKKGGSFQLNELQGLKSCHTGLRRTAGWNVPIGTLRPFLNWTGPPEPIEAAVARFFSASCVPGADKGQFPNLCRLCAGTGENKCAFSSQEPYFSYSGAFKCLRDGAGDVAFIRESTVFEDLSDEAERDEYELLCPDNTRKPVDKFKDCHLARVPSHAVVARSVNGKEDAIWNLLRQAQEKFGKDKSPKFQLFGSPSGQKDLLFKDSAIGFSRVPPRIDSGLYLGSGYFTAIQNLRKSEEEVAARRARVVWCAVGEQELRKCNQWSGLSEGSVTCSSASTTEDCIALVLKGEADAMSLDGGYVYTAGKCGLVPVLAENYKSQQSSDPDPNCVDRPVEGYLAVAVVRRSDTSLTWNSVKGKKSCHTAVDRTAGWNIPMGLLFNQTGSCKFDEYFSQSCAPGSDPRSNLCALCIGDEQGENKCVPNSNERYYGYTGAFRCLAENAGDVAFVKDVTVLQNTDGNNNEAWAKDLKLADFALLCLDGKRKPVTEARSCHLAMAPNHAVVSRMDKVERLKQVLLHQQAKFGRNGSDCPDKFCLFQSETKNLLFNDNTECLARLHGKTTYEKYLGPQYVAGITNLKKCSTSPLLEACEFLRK

[15] = target: laminin
[16] = target: synthetic peptide homologous to amino acids 234 to 241 of human IgG
[17] = target: the different subclasses of IgG
[18] = target: transferrin, P02787
transferrin, P02787, sequence (P02787 20-698): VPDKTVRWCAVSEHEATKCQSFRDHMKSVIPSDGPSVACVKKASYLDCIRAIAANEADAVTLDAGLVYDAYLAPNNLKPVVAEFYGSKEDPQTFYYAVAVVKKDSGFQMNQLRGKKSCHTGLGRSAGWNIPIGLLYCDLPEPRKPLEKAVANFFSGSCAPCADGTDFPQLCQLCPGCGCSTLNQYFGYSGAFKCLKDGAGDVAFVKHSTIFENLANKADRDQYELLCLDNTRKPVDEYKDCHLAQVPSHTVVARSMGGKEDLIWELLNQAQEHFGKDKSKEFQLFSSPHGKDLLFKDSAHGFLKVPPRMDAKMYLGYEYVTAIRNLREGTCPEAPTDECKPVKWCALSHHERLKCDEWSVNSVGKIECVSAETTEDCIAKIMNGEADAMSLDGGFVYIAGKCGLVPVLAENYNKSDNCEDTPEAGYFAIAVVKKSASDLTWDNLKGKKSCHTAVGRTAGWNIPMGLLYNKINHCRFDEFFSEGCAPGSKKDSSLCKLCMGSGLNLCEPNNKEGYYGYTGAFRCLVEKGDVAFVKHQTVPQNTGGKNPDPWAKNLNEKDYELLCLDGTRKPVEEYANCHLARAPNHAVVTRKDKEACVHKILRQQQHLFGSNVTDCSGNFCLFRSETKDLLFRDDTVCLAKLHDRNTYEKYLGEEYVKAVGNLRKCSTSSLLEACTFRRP

[19] = target: whole human plasma
[20] = target: α 1-antitrypsin, P01009
α 1-antitrypsin, P01009, sequence (P01009 whole entry, looked up): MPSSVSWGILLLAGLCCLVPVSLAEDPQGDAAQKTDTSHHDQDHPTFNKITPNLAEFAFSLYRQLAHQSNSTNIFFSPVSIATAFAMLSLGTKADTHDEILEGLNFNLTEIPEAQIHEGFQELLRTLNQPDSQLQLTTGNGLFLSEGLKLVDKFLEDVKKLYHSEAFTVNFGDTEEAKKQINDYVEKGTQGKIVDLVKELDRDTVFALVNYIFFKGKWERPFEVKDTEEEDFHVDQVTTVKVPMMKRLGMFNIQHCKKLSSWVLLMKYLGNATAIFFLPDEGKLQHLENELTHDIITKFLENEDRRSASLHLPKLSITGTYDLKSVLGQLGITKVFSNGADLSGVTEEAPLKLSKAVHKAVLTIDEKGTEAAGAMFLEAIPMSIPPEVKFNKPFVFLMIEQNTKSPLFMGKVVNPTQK

B1: IdeS (Immunoglobulin G-degrading enzyme of S. pyogenes), purified from culture supernatant of S. pyogenes strain AP1 (protein)
chain: DSFSANQEIRYSEVTPYHVTSVWTKGVTPPANFTQGEDVFHAPYVANQGWYDITKTFNGKDDLLCGAATAGNMLHWWFDQNKDQIKRYLEEHPEKQKINFNGEQMFDVKEAIDTKNHQLDSKLFEYFKEKAFPYLSTKHLGVFPDHVIDMFINGYRLSLTNHGPTPVKEGSKDPRGGIFDAVFTRGDQSKLLTSRHDFKEKNLKEISDLIKKELTEGKALGLSHTYANVRINHVINLWGADFDSNGNLKAIYVTDSDSNASIGMKKYFVGVNSAGKVAISAKEIKEDNIGAQVLGLFTLSTGQDSWNQTN
[1]
  cleavage: a Fc-fragment generated by papain cleavage, including 12 amino acids of the hinge region is cleaved by IdeS
[2]
  cleavage products: No cleavage products could be detected
[3]
  cleavage of the peptide: Neither was the synthetic peptide Z-LVG-CHN2, which inhibits IdeS activity, cleaved by excess IdeS
[4]
  cleavage products: No cleavage products could be detected
[5]
  degradation of the peptide: did not reveal any degradation of the peptides
[6]
  cleavage products: No cleavage products could be detected
[7]
  cleavage products: No cleavage products could be observed
[8]
  cleavage products: No cleavage products could be observed
[9]
  cleavage products: No cleavage products could be observed
[10]
  cleavage products: No cleavage products could be detected
[11]
  cleavage products: No cleavage products could be detected
[12]
  cleavage products: No cleavage products could be detected
[13]
  cleavage products: No cleavage products could be detected
[14]
  cleavage products: No cleavage products could be detected
[15]
  cleavage products: No cleavage products could be detected
[16]
  degradation of the peptide: did not reveal any degradation of the peptides
[17]
  IdeS digestion: all were susceptible for IdeS digestion
[18]
  cleavage products: No cleavage products could be detected
[19]
  cleavage products: No cleavage products could be detected
[20]
  cleavage products: No cleavage products could be detected
